Test results from article PMC9294000, “Structural basis for the simultaneous recognition of NEMO and acceptor ubiquitin by the HOIP NZF1 domain” (Scientific Reports, 2022).
Blank lines part the entries; values can stand above or below the binder they belong to.

Tests used:
mono-ubiquitin = target: T1, mono-ubiquitin (UniProt P0CG48 1-76); experiment: SPR; Biacore S200; GST-HOIP NZF1 held on anti-GST antibodies amine-coupled to a CM5 chip, GST as control; analytes in 10 mM HEPES pH 7.4, 150 mM NaCl, 0.005% P20; mono-ubiquitin 288.0-1.1 µM, mNEMO 100.0-0.4 µM; equilibrium KD; duplicate; conditions: both partners purified
T1 construct: ubiquitin (mono-ubiquitin); The methods describe neither a plasmid nor a supplier for the mono-ubiquitin

[1] = target: T2, mouse NEMO (mNEMO, a.a. 250–339, corresponding to hNEMO 257–346) (mouse, UniProt O88522 250-339); experiment: as above; conditions: both partners purified
T2 construct: NEMO (IKKγ), mouse, residues 250-339; Cloned into pET-28a downstream of the 6xHis tag; source: E. coli BL21 (DE3), purified (Talon beads, on-column thrombin cleavage, size-exclusion chromatography); not shown: His6, N-terminal, cleaved
T2 sequence (O88522 250-339): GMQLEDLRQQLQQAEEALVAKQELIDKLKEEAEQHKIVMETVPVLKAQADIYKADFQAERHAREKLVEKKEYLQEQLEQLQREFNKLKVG

linear diubiquitin = target: T3, linear diubiquitin (UniProt P0CG48 1-76; P0CG48 1-76); experiment: crystal structure; hHOIP NZF1, hNEMO and linear di-ubiquitin purified separately, mixed in an equimolar ratio; sitting drops, 0.1 M Tris-HCl pH 8.5, 22% v/v PEG Smear Broad; 4.2 Å; heteropentameric complex; conditions: both partners purified
T3 construct: ubiquitin, the N-terminal (distal) unit of the head-to-tail chain; its C-terminal Gly is joined to Met1 of the next ubiquitin; ubiquitin, the C-terminal (proximal) unit of the head-to-tail chain, residues 1-76 (Leu73-Gly76 not visible in the map); Two ubiquitins on one chain, expressed from pGEX-4T-1; also called linear diubiquitin chain; source: E. coli, purified (Glutathione Sepharose 4B, …)

[2] = target: T4, human HOIP NZF1 (hHOIP NZF1, aa. 350–379) (human, UniProt Q96EP0 350-379); experiment: as above; conditions: both partners purified
T4 construct: HOIP, human, NZF1 domain, residues 350-379; Cloned into pGEX-6p-1; also called Npl4 zinc finger 1 domain of HOIP; source: E. coli BL21 (DE3), purified (Glutathione Sepharose 4B, on-column PreScission cleavage, Superdex 75); not shown: GST, N-terminal, cleaved
T4 chain (looked up): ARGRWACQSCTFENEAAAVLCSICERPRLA

[3] = target: the molecule itself; experiment: as above

Kd (mono-ubiquitin): 135 µM | Kd [1]: 86.7 µM
B1: GST-HOIP NZF1(a.a. 350–379) (domain or fragment, human, UniProt Q96EP0 350-379, looked up)
chain: T4 chain (looked up)
notes: HOIP, human, NZF1 domain, residues 350-379; Held on the SPR chip by anti-GST antibodies; how the uncleaved fusion was purified is not described; source: E. coli BL21 (DE3), expressed as GST-fusion protein; not shown: GST, N-terminal, kept

binding result (linear diubiquitin): binds | stoichiometry N [2]: 2 NEMO chains per NZF1
B2: human NEMO (hNEMO, aa. 257–346) (domain or fragment, UniProt Q9Y6K9 257-346, looked up)
chain: GMQLEDLKQQLQQAEEALVAKQEVIDKLKEEAEQHKIVMETVPVLKAQADIYKADFQAERQAREKLAEKKELLQEQLEQLQREYSKLKAS
notes: NEMO (IKKγ), human, residues 257-346 (CoZi region with the UBAN domain); Coiled-coil homodimer in the crystal; Cloned into pGEX-6p-1; also called NEMO CoZi; NEMO coiled-coil 2/zinc finger (CoZi); source: E. coli BL21 (DE3), purified (Glutathione Sepharose 4B, on-column PreScission cleavage, Superdex 75); not shown: GST, N-terminal, cleaved
stoichiometry N [3]: 2
